Measurements reported in the nanobody polyreactivity screen of Harvey et al. (2022).

assay: yeast display, Sf9 membrane polyspecificity reagent, FACS + sequencing; frameworks hold sequencing errors
Procedure, shortened: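 Using colony PCR, genes from sorted yeast display clones were amplified, then sequenced on MiSeq at 2 × 250 and filtered by CDR length. The clones had been stained with 10% biotinylated, detergent-solubilized Sf9 membrane reagent for 1 hour at 4 °C and sorted by FACS into low and high (top ~1%) gates on anti-HA and streptavidin fluorescence. Polyreactivity labels come from the gate of origin.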

Row | Sequence | polyreactivity (PSR sort gate)
1 | QVQLVESGGGLVQAGGSLRLSCAASGRIFRGNAMGWYRQVPGKERELVAAISSGTRTTYADSVKGRFTISRDNAKNTVYLQMNSLKPEDTAVYYCAARTSNYPRWRVGGYSYDYWGQGTQVTVSS | high polyreactivity
2 | QVQLVESGGGLVQAGGSLRLSCAASGRIFRGNAMGWYRQVPGKERELVAAISSGTRTTYADSVKGRFTISRDNAKNTVYLQMNSLKPEDTAVYYCAAYNSYLGYPYYYWGQGTQVTVSS | high polyreactivity
3 | QVQLVESGGGLVQAGGSLRLSCAASGRIFRGYAMGWYRQAPGKERELVATISAIGGSTYADSVKGRFTISRDNAKNTVYLQMNSLKPEDTAVYYCNVRKVYRYQYRFEYWGQGTQVTVSS | high polyreactivity
4 | QVQLVESGGGLVQAGGSLRLSCAASGRIFRGYAMGWYRQAPGKERELVAVISYSGTRTYYADSVKGRFTISRDNAKNTVYLQMNSLKPEDTAVYYCNARANGFKDGYWGQGTQVTVSS | high polyreactivity
5 | QVQLVESGGGLVQAGGSLRLSCAASGRIFRGYAMGWYRQAPGTERELVAAISRRGGSTYYAASVKGRFTISRDNAKNTVYLQNNSLKPEDTAVYYCNADGVHYVAYAGGYWGQGTQVTVSS | high polyreactivity
6 | QVQLVESGGGLVQAGGSLRLSCAASGRIFRGYVMGWYRQAPGKERELVAVITSGGRTYYADSVKGRFTISRDNAKNTVYLQMNSHKPEDTAVYYCATYPRYKPYYYWGQGTQVTVSS | low polyreactivity
7 | QVQLVESGGGLVQAGGSLRLSCAASGRIFRHNTMGWYLQAPGKERELVAAIRYSGGRTYYADSVKGRFTLSRDTAKNTFYLQMNSLKPEDTAVYYCAATYFAAVYSSWYWFDYWGQGTQVTVSS | high polyreactivity
8 | QVQLVESGGGLVQAGGSLRLSCAASGRIFRHNTMGWYRQAPGNESELVAGITASGGDTYYADSVTGRFTISRDNAKNTVYLQMNSLNPEDTAVYDCATSQYGYRSWPGLYYWGQGTQVTVSS | low polyreactivity
9 | QVQLVESGGGLVQAGGSLRLSCAASGRIFRINAMGWYRQAPGKERELVATISSGGGSTYADSVKGRFTISRDNAKTTVYLQMNSLKPEDTAVYYCAARSRIGRYTYDYWGQGTQVTVSS | high polyreactivity
10 | QVQLVESGGGLVQAGGSLRLSCAASGRIFRINAMGWYRQAPGKERELVATITSGGRTKYADSVKGRFTISRDNAKNTVYLQMNSLKPEDTAVYYCAADWRVRVRQHIPDKYDYWGQGTQVTVSS | low polyreactivity
11 | QVQLVESGGGLVQAGGSLRLSCAASGRIFRINGMGWYRQAPGKEREFVAAITSGGGTYYADSVKGRFTISRDNAKNTVYLQMNSLKPEDTAVYYCAVRRRYGDDYWGQGTQVTVSS | high polyreactivity
12 | QVQLVESGGGLVQAGGSLRLSCAASGRIFRKNARGWYRQAPGKEREFVAAIRLSGGRTFYADSVKGRFTISRDNAKNTVYLQMNSLKPEDTAVYYCAAETVNGKHDYWGQGTQVTVSS | high polyreactivity
13 | QVQLVESGGGLVQAGGSLRLSCAASGRIFRKNVMGWYRQAPGKERELVAAIRWSGGGTYYADSVKGRFTISRDNAKNTVYLQMNSLKPEDTAVYYCAAVPTSSAYDYWGQGTQVTVSS | high polyreactivity
14 | QVQLVESGGGLVQAGGSLRLSCAASGRIFRLYAMGWYRQAPGKERELGAAISSRGGDTYADSVKGRFTISRDNAKNTVYLQMNSLKPEDTAVYYCNDVIYYPYKSGVWYYEYDYWGQGTKVTVSS | low polyreactivity
15 | QVQLVESGGGLVQAGGSLRLSCAASGRIFRLYAMGWYRQSPGKERELVATITSGGTYYADSVKGRFTISRDNAKNTVYLQMNSLKPEDTAVYYCTARRRLRYDYWGQGTQVTVSS | low polyreactivity
16 | QVQLVESGGGLVQAGGSLRLSCAASGRIFRPNAMGWNRQAPGKVRELVAAISSGGSTYYADSVKGRFTISRDNAKNTVYLQMNSLKPEDTAVYYCAARSRGYDIRYGYWGQGTQVTVSS | high polyreactivity

Row | Sequence | polyreactivity (PSR sort gate)
17 | QVQLVESGGGLVQAGGSLRLSCAASGRIFRPYAMGWYRLAPGKERELVAAISWSGDDTYYADSVKGRFTISRDNAKNTVYLQMNSLKPEDTAVYYCAAEVYAAAYDYWGQGTQVTVSS | low polyreactivity
18 | QVQLVESGGGLVQAGGSLRLSCAASGRIFRPYAMGWYRQAPGKERELVAAITQSGGITSYADSVKGRFTISRDNAKNSVYLQMNSLKPEDTAVYYCATTSRYTRSHYDWYDYWGQGTQVTVSS | low polyreactivity
19 | QVQLVESGGGLVQAGGSLRLSCAASGRIFRPYTMGWYRQAPGKERELVAAITSGSSTNYADSVKGRFTISRDNAKNTVYLHMNSLKPEDTAVYYCAVKVRIFASYYPFYYWGQGSQVTVSS | high polyreactivity
20 | QVQLVESGGGLVQAGGSLRLSCAASGRIFRQNAMGWYRQAPGKERELVAAISRSGGSTYYADSVKGRFTISRDNAKNTVYLQMNSLNPEDTAVYYCNRDYQSQRTYPRRYDYWGQGTQVTVSS | low polyreactivity
21 | QVQLVESGGGLVQAGGSLRLSCAASGRIFRQYAMGWYRQAPGKERELVAAITSGGSTNYADSVKGRFTISRDNAKNTVYLQMNSLKPEDTAVYYCNAAGGTRSGVQYDYWGQGTQVTVSS | low polyreactivity
22 | QVQLVESGGGLVQAGGSLRLSCAASGRIFRQYAMGWYRQAPGKERELVAAITSGGSTNYADSVKGRFTISRDNAKNTVYLQMNSLKPEDTAVYYCNARWPYAYQDGYWGQGTQVTVSS | low polyreactivity
23 | QVQLVESGGGLVQAGGSLRLSCAASGRIFRRNAMGWYRQAPGKERELVAAITSNGGRTYYADSVKGRFTISRDNAKNTVYLQMNSLKPEDTAVYYCAADTYDNDYYYWGQGTQVTVSS | high polyreactivity
24 | QVQLVESGGGLVQAGGSLRLSCAASGRIFRRNTMGWYRQAPGKERELVAAITSSGGSTYADSVKGRFTISRDNAKNTVYLQMKSLKPEDTAVYYCATYVAYHRGYRTYDHWGQGTQVTVSS | low polyreactivity
25 | QVQLVESGGGLVQAGGSLRLSCAASGRIFRRNTMGWYRQAPGKERELVAAITSSGGSTYADSVKGRFTISRDNAKNTVYLQMNSLTPEDTAVYYCATYVAYHRGYRTYDHWGQGTHVTVSS | low polyreactivity
26 | QVQLVESGGGLVQAGGSLRLSCAASGRIFRRNTMGWYRQAPGKERELVATISKNGGSTYYADSVKGRFTISRDNAKNTVYLQMNSLKPADTAVYYCNAPDPSSTSYFPYELGYWGQGTQVTVSS | high polyreactivity
27 | QVQLVESGGGLVQAGGSLRLSCAASGRIFRRYAMGWYRQAPAKERELVAAITTSGGSTYYADSVKGRFTISRDNAKNTVYLQMNSQNPADTAVYYCNTVSPYKYDWGLGTQVTVSS | high polyreactivity
28 | QVQLVESGGGLVQAGGSLRLSCAASGRIFRRYAMGWYRQAPGKEREFVAAITKSGGSTYYADSVKGRFTISRDNAKNTVYLQMNSLKPEDTAVYYCATYPQYYFGYDYWGQGTQVTVSS | high polyreactivity
29 | QVQLVESGGGLVQAGGSLRLSCAASGRIFRRYAMGWYRQAPGKERELVAAISWSGGATYYADSVKGRFTISRDNAKNTVYLQMNSLKPEDTAVYYCAALRYQQCRAYDYWGQGTLVTVSS | high polyreactivity
30 | QVQLVESGGGLVQAGGSLRLSCAASGRIFRRYTMGWSRQAPGKERELVAAISSGGSTNYADSVKGRFTISRDNANNTVYLQMNSLKPEDTAVYYCAARFASRQHTIYYYWGQGTQVTVSS | high polyreactivity
31 | QVQLVESGGGLVQAGGSLRLSCAASGRIFRRYTMGWYRQAPGKERELVAAITWNGGRTYYADSVKGRFTISRDNAKNTVYLQMNSLKPEDTAVYYCAARRQGGYGYDYWGQGTQVTVSS | high polyreactivity
32 | QVQLVESGGGLVQAGGSLRLSCAASGRIFRRYVMVWSRQAPGKERELVARIRIRDSNTYYADSVKGRFTISRDNAKNTVYLQMNSLKPEDTAVYYCAVVANYVYSKYDYWGQGTLVTVSS | high polyreactivity
